Results from article PMC4100210 (Nature communications, 2014).
Ends that are not written are not given here.

Experiments:
Dvl2 full-length protein = molecular target: T1, Dvl2 full-length protein (human, UniProt O14641 1-736); test: pull-down
T1 sequence (looked up): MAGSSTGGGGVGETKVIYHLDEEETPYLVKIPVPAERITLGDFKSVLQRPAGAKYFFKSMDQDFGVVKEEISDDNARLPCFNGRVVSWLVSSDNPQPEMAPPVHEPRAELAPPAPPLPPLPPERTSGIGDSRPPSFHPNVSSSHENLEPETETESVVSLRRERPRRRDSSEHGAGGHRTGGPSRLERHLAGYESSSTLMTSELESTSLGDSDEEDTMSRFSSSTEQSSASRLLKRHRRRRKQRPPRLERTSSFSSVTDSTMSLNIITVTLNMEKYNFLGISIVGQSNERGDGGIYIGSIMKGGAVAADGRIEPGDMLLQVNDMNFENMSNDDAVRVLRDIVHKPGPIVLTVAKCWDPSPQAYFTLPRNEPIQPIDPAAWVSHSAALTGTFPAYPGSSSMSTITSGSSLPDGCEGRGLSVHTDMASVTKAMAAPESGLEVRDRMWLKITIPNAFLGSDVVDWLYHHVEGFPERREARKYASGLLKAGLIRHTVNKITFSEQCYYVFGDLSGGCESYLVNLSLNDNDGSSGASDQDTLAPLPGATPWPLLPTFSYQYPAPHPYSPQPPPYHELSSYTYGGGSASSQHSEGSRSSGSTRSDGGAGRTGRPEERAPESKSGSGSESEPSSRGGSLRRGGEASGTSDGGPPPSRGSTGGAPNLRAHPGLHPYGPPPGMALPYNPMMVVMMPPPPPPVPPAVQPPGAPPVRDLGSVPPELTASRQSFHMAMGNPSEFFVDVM

Dvl2 FL F277A/M300A = molecular target: T2, Dvl2 FL F277A/M300A (human, UniProt O14641 1-736, F277A | M300A); test: pull-down
T2 sequence (looked up): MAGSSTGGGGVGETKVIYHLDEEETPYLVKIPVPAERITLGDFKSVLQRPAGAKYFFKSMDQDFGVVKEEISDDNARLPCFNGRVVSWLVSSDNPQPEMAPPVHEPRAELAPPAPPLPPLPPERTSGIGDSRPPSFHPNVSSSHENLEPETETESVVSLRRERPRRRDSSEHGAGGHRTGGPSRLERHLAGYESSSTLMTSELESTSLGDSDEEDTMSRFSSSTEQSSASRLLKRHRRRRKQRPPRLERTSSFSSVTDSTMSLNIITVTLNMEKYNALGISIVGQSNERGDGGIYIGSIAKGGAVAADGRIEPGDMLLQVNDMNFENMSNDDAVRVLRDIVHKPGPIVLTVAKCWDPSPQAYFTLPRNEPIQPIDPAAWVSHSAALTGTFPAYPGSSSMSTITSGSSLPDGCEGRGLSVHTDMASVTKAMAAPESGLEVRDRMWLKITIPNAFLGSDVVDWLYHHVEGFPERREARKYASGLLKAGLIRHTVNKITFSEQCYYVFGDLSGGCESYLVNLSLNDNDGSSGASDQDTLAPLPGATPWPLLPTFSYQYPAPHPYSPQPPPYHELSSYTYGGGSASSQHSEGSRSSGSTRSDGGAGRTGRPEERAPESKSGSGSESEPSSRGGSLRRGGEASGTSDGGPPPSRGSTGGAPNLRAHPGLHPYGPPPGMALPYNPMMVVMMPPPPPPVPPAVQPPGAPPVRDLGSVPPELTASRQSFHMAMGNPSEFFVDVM

binding result (Dvl2 full-length protein): binds
binding result (Dvl2 FL F277A/M300A): binds
B1: GST-Fz7 fusion peptide (GST-GKTLQSWRRFYHRLSHSSKGETAV) (peptide)
chain: {GST}-GKTLQSWRRFYHRLSHSSKGETAV
